Assay results as given in US20180185459A1 (PORTOLA PHARMACEUTICALS, published 2018).
Residue numbers refer to the chain shown, from its start.

T1: cofactor factor Va of the prothrombinase complex (endogenous, in human plasma), P12259
T1 chain 1: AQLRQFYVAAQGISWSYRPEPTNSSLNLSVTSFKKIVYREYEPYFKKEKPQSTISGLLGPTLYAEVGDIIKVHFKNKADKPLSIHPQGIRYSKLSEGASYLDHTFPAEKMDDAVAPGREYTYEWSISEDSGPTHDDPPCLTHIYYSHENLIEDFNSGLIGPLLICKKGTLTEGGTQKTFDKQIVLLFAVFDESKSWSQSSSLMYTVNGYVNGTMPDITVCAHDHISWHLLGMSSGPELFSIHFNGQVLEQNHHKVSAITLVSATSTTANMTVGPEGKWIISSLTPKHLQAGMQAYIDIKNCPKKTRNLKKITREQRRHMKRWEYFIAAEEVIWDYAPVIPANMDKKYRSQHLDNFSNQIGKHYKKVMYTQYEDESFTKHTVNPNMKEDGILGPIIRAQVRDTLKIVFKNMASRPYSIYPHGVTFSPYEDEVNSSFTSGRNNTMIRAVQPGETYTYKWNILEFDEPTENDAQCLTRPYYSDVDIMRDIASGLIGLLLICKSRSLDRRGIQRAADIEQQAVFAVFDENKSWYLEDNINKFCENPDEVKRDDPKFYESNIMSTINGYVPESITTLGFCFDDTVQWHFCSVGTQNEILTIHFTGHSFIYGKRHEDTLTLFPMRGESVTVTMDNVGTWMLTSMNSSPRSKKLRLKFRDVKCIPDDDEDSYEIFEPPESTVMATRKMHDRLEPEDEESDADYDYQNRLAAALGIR
T1 chain 2: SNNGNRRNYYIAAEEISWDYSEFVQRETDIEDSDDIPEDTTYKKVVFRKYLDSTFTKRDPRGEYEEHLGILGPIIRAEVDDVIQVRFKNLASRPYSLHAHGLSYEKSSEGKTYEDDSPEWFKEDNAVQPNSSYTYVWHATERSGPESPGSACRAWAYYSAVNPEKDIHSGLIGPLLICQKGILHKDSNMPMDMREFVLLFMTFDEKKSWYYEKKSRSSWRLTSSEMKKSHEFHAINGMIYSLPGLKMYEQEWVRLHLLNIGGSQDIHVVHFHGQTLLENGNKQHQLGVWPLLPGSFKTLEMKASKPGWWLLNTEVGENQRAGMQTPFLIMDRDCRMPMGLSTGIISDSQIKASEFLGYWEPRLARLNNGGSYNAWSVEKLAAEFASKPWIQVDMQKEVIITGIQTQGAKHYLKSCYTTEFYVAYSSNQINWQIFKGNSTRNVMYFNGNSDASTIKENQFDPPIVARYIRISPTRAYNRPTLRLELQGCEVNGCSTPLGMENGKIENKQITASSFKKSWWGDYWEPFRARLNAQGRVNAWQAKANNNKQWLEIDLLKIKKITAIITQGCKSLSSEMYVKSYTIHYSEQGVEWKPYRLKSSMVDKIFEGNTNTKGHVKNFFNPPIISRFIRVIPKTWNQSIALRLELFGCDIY

B1: EGR-Xa, active site inhibited full length human fXa (human plasma derived) (protein)
chain 1: ANSFLEEMKKGHLERECMEETCSYEEAREVFEDSDKTNEFWNKYKDGDQCETSPCQNQGKCKDGLGEYTCTCLEGFEGKNCELFTRKLCSLDNGDCDQFCHEEQNSVVCSCARGYTLADNGKACIPTGPYPCGKQTLER
chain 2: IVGGQECKDGECPWQALLINEENEGFCGGTILSEFYILTAAHCLYQAKRFKVRVGDRNTEQEEGGEAVHEVEVVIKHNRFTKETYDFDIAVLRLKTPITFRMNVAPACLPERDWAESTLMTQKTGIVSGFGRTHEKGRQSTRLKMLEVPYVDRNSCKLSSSFIITQNMFCAGYDTKQEDACQGDSGGPHVTRFKDTYFVTGIVSWGEGCARKGKYGIYTKVTAFLKWIDRSMKTRGLPKAKSHAPEVITSSPLK
B2: r-Antidote (processed two-chain polypeptide, human factor Xa triple mutant after removal of the -RKRRKR- linker) (other)
chain 1: ANSFLFWNKYKDGDQCETSPCQNQGKCKDGLGEYTCTCLEGFEGKNCELFTRKLCSLDNGDCDQFCHEEQNSVVCSCARGYTLADNGKACIPTGPYPCGKQTLER
chain 2: B1 chain 2 with S185A

Key:
[1] = target: T1, cofactor factor Va of the …
[2] = target: ATIII-fondaparinux complex (human antithrombin III with fondaparinux bound) (human, UniProt P01008 33-464, non-covalently bound fondaparinux (synthetic pentasaccharide)); test: cell-based or functional assay
Chain of ATIII-fondaparinux complex (human antithrombin III with fondaparinux bound) (P01008 33-464 limits assumed, one chain of several): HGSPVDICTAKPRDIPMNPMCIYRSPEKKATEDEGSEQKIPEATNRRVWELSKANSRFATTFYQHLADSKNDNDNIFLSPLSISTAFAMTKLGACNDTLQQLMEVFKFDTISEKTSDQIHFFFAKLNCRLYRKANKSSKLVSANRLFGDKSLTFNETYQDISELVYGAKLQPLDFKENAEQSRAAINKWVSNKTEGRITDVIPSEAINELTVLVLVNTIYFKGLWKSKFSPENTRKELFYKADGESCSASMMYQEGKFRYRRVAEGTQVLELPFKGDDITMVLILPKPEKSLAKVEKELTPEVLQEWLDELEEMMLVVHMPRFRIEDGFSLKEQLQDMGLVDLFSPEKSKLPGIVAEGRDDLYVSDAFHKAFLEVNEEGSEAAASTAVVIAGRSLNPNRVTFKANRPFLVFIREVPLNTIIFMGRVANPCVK

Binder	IIa formation (RFU) in tissue factor-initiated thrombin generation in human plasma against EGR-Xa concentration [1]	IC50 (read off the curve): r-Antidote concentration that halves kiapp of fXa inhibition by the ATIII-fondaparinux complex [2] [nM]
B1	circles: falls steeply from about 380,000 RFU at 0 nM to about 180,000 and about 85,000 RFU at the next points, below 50,000 RFU by about 100 nM and about 10,000 RFU at about 500 nM	–
B2	–	~100
